Laboratory results reported in patent US20240360228A1 (BIOLEGEND, published 2024).

What was measured:
human CCR8 [1] = target: T1, human CCR8 (human, UniProt P51685 1-355); assay: flow blocking, PBMC CCR8+CD4+; competitor PE-AB1
T1 construct: Native CCR8 on human PBMC (CCR8+ CD3+ or CCR8+ CD4+ lymphocytes); also called chemokine (C-C motif) receptor 8
Protocol: (§1) For blocking studies, 100 μL of the cell suspension were incubated with 10 μg purified isotype control, AB1, AB2, AB3, AB4, AB5, AB8, AB9, AB10, AB11, AB12, AB13, AB14, AB15, and Commercial ABI antibodies, or isotype control, as blocking agents.
(§2) After incubation with the blocking agent, the cells were incubated with 0.25 μg of the indicated PE-conjugated antibody plus anti-human CD4 APC or anti-human CD3 for another 15 minutes in the dark and then washed 2 times with Cell Staining Buffer, and acquired in a FACSCanto II flow cytometer (BD Biosciences); the data was analyzed using FCS Express (De Novo Software); MFI correspond to the CCR8+ CD4+ lymphocytes or CCR8+ CD3+ lymphocytes.
(§3) Percentage original MFI was calculated by dividing the MFI of samples blocked with AB1, AB2, AB3, AB4, AB5, AB6, AB7, AB8, AB9, AB10, AB11, AB12, AB13, AB14, AB15, and Commercial ABI antibodies, by the MFI of samples blocked with the corresponding isotype control. This value was subtracted from 100 to get a blocking percentage. The formula is shown below: […]

human CCR8 [2] = target: T1, human CCR8; assay: flow blocking, PBMC CCR8+CD4+; competitor PE-AB2
Protocol: as §1, §2, §3

human CCR8 [3] = target: T1, human CCR8; assay: flow blocking, PBMC CCR8+CD4+; competitor PE-AB3
Protocol: as §1, §2, §3

human CCR8 [4] = target: T1, human CCR8; assay: flow blocking, PBMC CCR8+CD4+; competitor PE-AB4
Protocol: as §1, §2, §3

human CCR8 [5] = target: T1, human CCR8; assay: flow blocking, PBMC CCR8+CD4+; competitor PE-AB5
Protocol: as §1, §2, §3

human CCR8 [6] = target: T1, human CCR8; assay: flow blocking, PBMC CCR8+CD4+; competitor PE-AB6
Protocol: as §1, §2

human CCR8 [7] = target: T1, human CCR8; assay: flow blocking, PBMC CCR8+CD4+; competitor PE-433H
Protocol: as §1, §2

human CCR8 [8] = target: T1, human CCR8; assay: flow blocking, PBMC CCR8+CD4+; competitor PE-AB10
Protocol: as §1, §2, §3

human CCR8 [9] = target: T1, human CCR8; assay: flow blocking, PBMC CCR8+CD4+; competitor PE-AB11
Protocol: as §1, §2, §3

human CCR8 [10] = target: T1, human CCR8; assay: flow blocking, PBMC CCR8+CD4+; competitor PE-AB12
Protocol: as §1, §2, §3

human CCR8 [11] = target: T1, human CCR8; assay: flow blocking, PBMC CCR8+CD4+; competitor PE-AB13
Protocol: as §1, §2

human CCR8 [12] = target: T1, human CCR8; assay: flow blocking, PBMC CCR8+CD4+; competitor PE-AB14
Protocol: as §1, §2

human CCR8 [13] = target: T1, human CCR8; assay: flow blocking, PBMC CCR8+CD4+; competitor PE-AB15
Protocol: as §1, §2, §3

T1 sequence (P51685 whole entry): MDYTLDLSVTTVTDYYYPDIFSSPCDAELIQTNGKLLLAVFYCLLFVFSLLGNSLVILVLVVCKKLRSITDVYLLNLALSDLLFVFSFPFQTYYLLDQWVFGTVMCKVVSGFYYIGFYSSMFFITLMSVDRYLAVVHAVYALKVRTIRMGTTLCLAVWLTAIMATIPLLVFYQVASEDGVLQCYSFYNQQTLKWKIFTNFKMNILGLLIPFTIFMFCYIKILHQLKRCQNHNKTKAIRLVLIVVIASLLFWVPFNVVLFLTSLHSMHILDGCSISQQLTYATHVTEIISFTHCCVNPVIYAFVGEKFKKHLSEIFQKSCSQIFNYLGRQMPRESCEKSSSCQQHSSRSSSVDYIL

% Blocking (human CCR8 [1]) [%] | % Positive cells (human CCR8 [1]) [%] | % Blocking (human CCR8 [2]) [%] | % Positive cells (human CCR8 [2]) [%] | % Blocking (human CCR8 [3]) [%] | % Positive cells (human CCR8 [3]) [%] | % Blocking (human CCR8 [4]) [%] | % Positive cells (human CCR8 [4]) [%] | % Blocking (human CCR8 [5]) [%] | % Positive cells (human CCR8 [5]) [%] | % Blocking (human CCR8 [6]) [%] | % Positive cells (human CCR8 [6]) [%] | % Blocking (human CCR8 [7]) [%] | % Positive cells (human CCR8 [7]) [%] | % Blocking (human CCR8 [8]) [%] | % Positive cells (human CCR8 [8]) [%] | % Blocking (human CCR8 [9]) [%] | % Positive cells (human CCR8 [9]) [%] | % Blocking (human CCR8 [10]) [%] | % Positive cells (human CCR8 [10]) [%] | further results | Binder
-25.2 | 1.94 | -10.4 | 1.81 | -27.5 | 2.18 | -10.1 | 1.96 | 6.93 | 1.88 | -3.47 | 2.09 | 22.7 | 1.36 | 96 | 0.06 | 98.5 | 0.03 | 99.4 | 0.01 | % Blocking (human CCR8 [11]): 96%; % Positive cells (human CCR8 [11]): 0.08%; % Blocking (human CCR8 [12]): 98.5%; % Positive cells (human CCR8 [12]): 0.02%; % Blocking (human CCR8 [13]): 97.7%; % Positive cells (human CCR8 [13]): 0.03% | AB14 (antibody, V domains shown, Hybridoma monoclonal; Same VH/VL entries as AB15; also called antibody 14; clone 14) VH: EVQLVESGGGLVQPKGSLKLSCAASGFTFNTYAMNWVRQAPGKGLEWVARIRSKSNNYATYYVDSVKDRFTISRDDSQSMLYLQINNLKTEDTAMYYCVRGRELGPYSAMDYWGQGTSVTVSS VL: DIVMTQAAPSVPVTPGESVSISCRSSKSLLHSNGNTYLYWFLQRPGQSPQLLIYRMSNLASGVPDRFSGSGSGTAFTLRISRVEAEDVGLYYCMQHLEYPFTFGGGTKLEIK
-38.7 | 2.15 | -28.1 | 2.1 | -33.3 | 2.28 | -1.69 | 1.81 | -17.8 | 2.38 | -23.8 | 2.5 | 21.6 | 1.38 | 93.2 | 0.1 | 85.2 | 0.29 | 99.4 | 0.01 | % Blocking (human CCR8 [11]): 91.9%; % Positive cells (human CCR8 [11]): 0.16%; % Blocking (human CCR8 [12]): 99.2%; % Positive cells (human CCR8 [12]): 0.01%; % Blocking (human CCR8 [13]): 93.8%; % Positive cells (human CCR8 [13]): 0.08% | AB15 (antibody, V domains shown, Hybridoma monoclonal; Same VH/VL entries as AB14; also called antibody 15; clone 15) VH: EVQLVESGGGLVQPKGSLKLSCAASGFTFNTYAMNWVRQAPGKGLEWVARIRSKSNNYATYYVDSVKDRFTISRDDSQSMLYLQINNLKTEDTAMYYCVRGRELGPYSAMDYWGQGTSVTVSS VL: DIVMTQAAPSVPVTPGESVSISCRSSKSLLHSNGNTYLYWFLQRPGQSPQLLIYRMSNLASGVPDRFSGSGSGTAFTLRISRVEAEDVGLYYCMQHLEYPFTFGGGTKLEIK
-29.7 | 2.01 | -32.9 | 2.18 | -34.5 | 2.3 | -33.1 | 2.37 | -2.48 | 2.07 | -15.3 | 2.33 | 60.2 | 0.7 | 87.8 | 0.18 | 99 | 0.02 | 99.4 | 0.01 | % Blocking (human CCR8 [11]): 98.5%; % Positive cells (human CCR8 [11]): 0.03%; % Blocking (human CCR8 [12]): 100%; % Positive cells (human CCR8 [12]): 0%; % Blocking (human CCR8 [13]): 94.6%; % Positive cells (human CCR8 [13]): 0.07% | AB12 (antibody, V domains shown, Hybridoma monoclonal; also called antibody 12; clone 12) VH: EVQLVESGGGLVQPKGSLKLSCAASGFAFNTYAMNWVRQAPGKGLEWIARLRSKSNFYATYYADSVKDRFTISRDDSQSMLYLQMNNLKTEDTAVYYCVRGRELGPSYAMDYWGQGTSVTVSS VL: DIVMTQAAPSVPVTPGESVSISCRSSKSLLHSNGNTYLYWFLQRPGQSPQLLIYRMSNLASGVPDRFSGSGSGTAFTLRISRVEAEDVGVYYCMQHLEYPYTFGGGTKLEIK
